We go through two molecules from PMC10516938, “Conformational dynamics of cohesin/Scc2 loading complex are regulated by Smc3 acetylation and ATP binding” (Nature Communications, 2023).

Numbering of substitutions follows the chain as printed.

The target in assay [1] is T1, Smc3^QQ K1004C (S. cerevisiae, UniProt P47037 1-1230, K112Q | K113Q | K1004C).
T1 construct: Smc3, S. cerevisiae; source: S. cerevisiae W303, late G1 arrested cells, whole-cell extract
T1 sequence (looked up): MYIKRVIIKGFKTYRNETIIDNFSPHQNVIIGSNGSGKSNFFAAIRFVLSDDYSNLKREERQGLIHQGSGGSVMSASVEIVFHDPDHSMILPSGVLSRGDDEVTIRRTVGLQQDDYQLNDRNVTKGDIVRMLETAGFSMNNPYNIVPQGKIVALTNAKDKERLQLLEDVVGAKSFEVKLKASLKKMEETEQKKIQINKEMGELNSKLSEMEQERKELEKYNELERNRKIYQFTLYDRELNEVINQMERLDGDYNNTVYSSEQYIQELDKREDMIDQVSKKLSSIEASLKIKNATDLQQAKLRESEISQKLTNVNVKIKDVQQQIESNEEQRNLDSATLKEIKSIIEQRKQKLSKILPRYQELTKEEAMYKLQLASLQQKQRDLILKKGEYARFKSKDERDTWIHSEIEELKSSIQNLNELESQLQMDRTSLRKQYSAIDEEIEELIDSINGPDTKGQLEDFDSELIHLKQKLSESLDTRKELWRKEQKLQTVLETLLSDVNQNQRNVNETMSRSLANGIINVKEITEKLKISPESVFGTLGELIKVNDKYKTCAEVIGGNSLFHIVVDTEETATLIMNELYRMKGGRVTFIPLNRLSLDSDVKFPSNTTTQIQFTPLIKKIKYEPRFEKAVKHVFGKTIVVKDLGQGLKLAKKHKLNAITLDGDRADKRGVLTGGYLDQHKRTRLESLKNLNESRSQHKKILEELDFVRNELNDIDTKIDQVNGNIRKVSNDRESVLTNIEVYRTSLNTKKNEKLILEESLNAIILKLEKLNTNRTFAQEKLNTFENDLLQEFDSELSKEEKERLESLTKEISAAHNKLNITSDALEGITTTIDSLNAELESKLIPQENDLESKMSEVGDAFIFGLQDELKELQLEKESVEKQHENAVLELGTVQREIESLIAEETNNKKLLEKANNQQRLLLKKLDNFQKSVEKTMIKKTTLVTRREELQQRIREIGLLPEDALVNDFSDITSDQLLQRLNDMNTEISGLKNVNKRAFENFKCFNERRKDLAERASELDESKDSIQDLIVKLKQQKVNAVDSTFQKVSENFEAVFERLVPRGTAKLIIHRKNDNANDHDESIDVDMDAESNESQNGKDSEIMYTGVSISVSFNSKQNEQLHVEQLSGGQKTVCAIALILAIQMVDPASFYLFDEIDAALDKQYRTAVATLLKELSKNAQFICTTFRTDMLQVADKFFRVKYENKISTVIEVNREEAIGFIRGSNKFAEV
Description: cross-linking; in vivo BMOE cross-link of cysteine pairs in yeast cells arrested in late G1 by non-degradable Sic1(9m); Scc1-PK immunoprecipitated, western blot, band intensities quantified. The conditions noted are these: partners not purified.

Assay [2] deals with T2, Smc3^QQ W483R R1008I Q67C (S. cerevisiae, UniProt P47037 1-1230, Q67C | K112Q | K113Q | W483R | R1008I).
T2 construct: Smc3, S. cerevisiae; also called smc3-QQ Q67C with R1008I and W483R; source: S. cerevisiae W303, late G1 arrested cells, whole-cell extract
T2 sequence (looked up): T1 sequence (looked up) with Q67C, W483R, C1004K, R1008I
The assay is described as above. The conditions noted are these: partners not purified.

B1: Scc2 D369C (natural protein, S. cerevisiae, UniProt Q04002 1-1493, looked up)
chain: MSYPGKDKNIPGRIIEALEDLPLSYLVPKDGLAALVNAPMRVSLPFDKTIFTSADDGRDVNINVLGTANSTTSSIKNEAEKERLVFKRPSNFTSSANSVDYVPTNFLEGLSPLAQSVLSTHKGLNDSINIEKKSEIVSRPEAKHKLESVTSNAGNLSFNDNSSNKKTKTSTGVTMTQANLAEQYLNDLKNILDIVGFDQNSAEIGNIEYWLQLPNKKFVLTTNCLTKLQMTIKNITDNPQLSNSIEITWLLRLLDVMVCNIKFSKSSLKMGLDDSMLRYIALLSTIVLFNIFLLGKNDSNLHRESYIMEPVNFLSDLIESLKILTIEYGSLKIEFDTFQEALELLPKYIRNGPFLDDNVTAKLVYIFSCLLMNNDIEATTNIQFQSFWDNVKRISSDILVSLFGSFDQQRGFIIEELLSHIEKLPTKRIQKKLRKVGNQNIYITDFTFTLMSMLENINCYSFCNQMKDIAPENIDLLKNEYKKQEEFLFNIVEHINDTILERFFKNPSALRYVIDNFVQDLLLLISSPQWPVTEKILSSLLKRLLSVYSPSMQVSANIETICLQLIGNIGSTIFDIKCSTRDHEDNNLIKMINYPETLPHFFKSFEECIAYNETIKCRRSATRFLWNLRLGTILILEEYTKDAKEQIITVDNELKKILEQIKDGGLGPELENREADFSTIKLDYFSILHAFELLNLYDPYLKLILSLLAKDKIKLRSTAIKCLSMLASKDKVILSNPMVKETIHRRLNDSSASVKDAILDLVSINSSYFEFYQQINNNYNDDSIMVRKHVLRINEKMYDETNDIVTKVYVIARILMKIEDEEDNIIDMARLILLNRWILKVHEVLDQPEKLKEISSSVLLVMSRVAIMNEKCSQLFDLFLNFYLLNKEAHSKEAYDKITHVLTILTDFLVQKIVELNSDDTNEKNSIVDKQNFLNLLAKFADSTVSFLTKDHITALYPYMVSDEKSDFHYYILQVFRCTFEKLANFKQKFLYDLETTLLSRLPKMNVREIDEAMPLIWSVATHRHDTARVAKACSSCLSHLHPYINKANNEEAAIVVDGKLQRLIYLSTGFARFCFPKPSNDKIAFLQEGETLYEHITKCLLVLSKDKITHVIRRVAVKNLTKLCGNHPKLFNSRHVLHLLDKEFQSDQLDIKLVILESLYDLFLLEERKSVRNTGVNSTLSSNSILKKKLLKTNRVEFANDGVCSALATRFLDNILQLCLLRDLKNSLVAIRLLKLILKFGYTNPSHSIPTVIALFASTSQYIRHVAYELLEDLFEKYETLVFSSLSRGVTKAIHYSIHTDEKYYYKHDHFLSLLEKLCGTGKKNGPKFFKVLKRIMQSYLDDITDLTSTNSSVQKSIFVLCTNISNITFVSQYDLVSLLKTIDLTTDRLKEVIMDEIGDNVSSLSVSEEKLSGIILIQLSLQDLGTYLLHLYGLRDDVLLLDIVEESELKNKQLPAKKPDISKFSAQLENIEQYSSNGKLLTYFRKHVKDT
notes: Scc2, S. cerevisiae; source: S. cerevisiae W303, in vivo, whole-cell extract
As to B1, the “crosslinking efficiency relative to wild type” value in assay [1] is around 10%.

B2: Scc2 T1175C (natural protein, S. cerevisiae, UniProt Q04002 1-1493, looked up)
chain: B1 chain with C369D, T1175C
notes: as for B1
As to B2, the “crosslinking efficiency relative to wild type” value in assay [2] was around 70%.
